Measurements reported in patent US20250108100A1, “C-TERMINAL FRAGMENT OF APOLIPOPROTEIN E AND APPLICATION THEREOF IN INHIBITING y-SECRETASE ACTIVITY” (SYNPHATEC (SHANGHAI) BIOPHARMACEUTICAL TECHNOLOGY CO., LTD., priority 2022, published 2025).
Entries after “also recorded” stand apart in the source; their conditions may differ.

Experiments:
Assay type in all cases: cell-based
[1] = system: human APP co-expressed in HEK 293T cells; assay: α-CTF produced by APP co-expressed in HEK 293T cells (Western blot); conditions: for α-CTF produced by co-expressed APP: Western blot
Protocol: • a) A plasmid expressing the target protein in mammalian cells was constructed, and the protein expression promoter is CAG. • b) The target protein was expressed in HEK 293T cell line. Cells were subcultured one day before transfection, and transfection was performed when the degree of cell adhesion reached 70%-80%. The transfection reagent was lipofectamine2000 (ThermoFisher). • c) 4-6 hours post transfection, the medium were replaced with fresh cell culture medium. • d) 36-48 hours post transfection, the cells were lysed (10% 1M tris-HCl (pH=6.8), 4% SDS, 20% glycerol, 0.01% bromophenol blue), and the protein samples were collected and used for Western blot or stored in a −80° C. freezer. • e) Polyacrylamide gel electrophoresis. Before protein loading, the protein was boiled at 98° C. for 10 min, and then centrifuged at 12000 rpm for 10 min. Electrophoresis: 80V for the upper stacking gel; 120V for the lower separating gel. • f) Protein transfer. The filter paper was soaked in the electrophoresis solution before use, and the PVDF membrane was put in methanol for 10s to activate, and the gel after electrophoresis was taken out from the electrophoresis tank, put in the order of filter paper—PVD membrane—gel-filter paper from bottom to top, and they were put into the transfer instrument, with transferring in constant current at 0.1 A for 70 min. • g) Blocking and antibody incubation: the transferred PVDF membrane was placed in 5% BSA/TBST blocking solution, and blocked on a shaker at room temperature for 1 hour. The primary antibody was used to incubate at 4° C. overnight on a shaker (12-16 h); 1×TBST was used to wash three times, once every 10 minutes; the secondary antibody was used to incubate, shaked at room temperature for 1-2 h; 1×TBST was used to wash three times, once every 10 minutes. • h) Imaging by development: development was performed with ECL chemiluminescence hypersensitive chromogenic reagent.
(§1) Plasmids were transfected in HEK 293T or N2A cells for 36-48 hours and then lysed in cell lysis buffer [10% 1M tris-HCl (pH=6.8), 4% SDS, 20% glycerol, 0.01% bromophenol blue]. Lysates were shaken at room temperature for 10 min, then boiled for 10 min, and centrifuged at 12,000×g for 10 min. Proteins were run on 8% or 12% Tris-glycine SDS-PAGE and transferred to PVDF membranes (Life Technologies). Samples were incubated overnight at 4° C. with primary antibody diluted in 5% BSA buffer (in 1×TBST). After washing 3 times with 1×TBST, they were incubated with secondary antibody diluted in 5% BSA buffer (in 1×TBST) for 2 hours at room temperature. Finally, after washing 3 times with 1×TBST, the signal was detected by ECL Western blotting substrate (Solarbio, PE0010).
(§2) Data were analyzed by GraphPad Prism software (v6) using unpaired, paired, or one-sample t-tests. Aβ40 and Aβ42 levels were normalized to the corresponding GFP controls. α-CTF levels were normalized to FL-APP and corresponding GFP controls. All data are represented as mean±SEM. Statistical significance was defined as p<0.05. One, two, three and four stars (*) in the graph indicate p-values <0.05, <0.01, <0.001 and <0.0001, respectively.

[2] = system: APP co-expressed in mouse neuron cell line N2A; assay: α-CTF produced by APP co-expressed in N2A cells (Western blot)
Protocol: as §1, §2

[3] = system: APP; assay: Cell surface expression of APP in HEK 293T cells (surface biotinylation, Western blot)
Protocol: FIGS. 29A-29K show ApoE CT is still able to regulate APP metabolism when α- or β-secretase is inhibited. […] N=9. FIGS. 29C-29D show ELISA assay and statistical analysis of Western blot assay for the effects of ApoE CT on Aβ production from co-expressed APP and BACE1 in HEK 293T cells treated with 1 μM ADAM10 inhibitor GI254023X; control group received no inhibitor treatment. FIG. 29C: Aβ40 in cell culture medium; FIG. 29D: Aβ40 in cell lysates. N=6. FIGS. 29E-29F show Western blot detection and statistical analysis of the effects of ApoE CT on the production of α-CTF from co-expressed APP in HEK 293T cells treated with 5 μM BACE1 inhibitor AZD3839; the control group received no inhibitor treatment. N=10. FIGS. 29G-29H show Western blot detection and statistical analysis of α-CTF produced by co-expressing APPM596V and GFP or ApoE CT in HEK 293T cells, respectively. N=7. […] Cell surface proteins of HEK 293T cells expressing GFP(−) and ApoE CT(+) were labeled with sulfo-N-hydroxysuccinimide-biotin and isolated with streptavidin-coupled agarose beads.

B1: ApoE CT: C-terminal fragment of ApoE, positions 216-299 of SEQ ID NO: 12; SEQ ID NO: 33 (protein)
chain: ARMEEMGSRTRDRLDEVKEQVAEVRAKLEEQAQQIRLQAEAFQARLKSWFEPLVEDMQRQWAGLVEKVQAAVGTSAAPVPSDNH
level of α-CTF compared with ApoE2 [1]: significantly increases the level of α-CTF | increase of α-CTF in the presence of GI254023X ([1]; 1 μM ADAM10 inhibitor GI254023X): approximately 4 fold | α-CTF in the presence of PF03084014 ([1]; 1 μM γ-secretase inhibitor PF03084014): failed to further increase α-CTF | α-CTF when β-secretase inhibited by AZD3839 ([1]; 5 μM AZD3839): still increases α-CTF | α-CTF produced by APP co-expressed with PS1 ([1]; APP and PS1 co-expressed, PF03084014 at 1 μM): significantly increases α-CTF; also recorded: can increase the production of α-CTF | γ-cleavage of APP (α-CTF) when co-expressed with γ-secretase ([1]; APP, γ-secretase and ApoE CT co-expressed): still inhibited γ-cleavage of APP | α-CTF produced by co-expressed APP ([1]; vs GFP control): significantly increased α-CTF; also recorded: increased the α-CTF | α-CTF produced by co-expressed APP ([1]; vs GFP control, listed as human ApoE CT): also increase α-CTF | increase in α-CTF levels ([1]; vs GFP control): more than 6 fold | α-CTF level ([1]; vs GFP control): more than 5 times the original level | level of α-CTF compared with ApoE2 [2]: significantly increases the level of α-CTF | α-CTF produced by co-expressed APP ([2]; Western blot, vs GFP control): significantly increases α-CTF | APP expression on the cell surface [3]: did not alter APP expression on the cell surface
